From publication PMC5085863 (The Biochemical journal, 2016)
Where two headings read alike, the source gives them in different places.

Assays:
Assay in all cases: FRET or BRET
FRET or BRET [1] = target: the molecule itself
FRET or BRET [2] = target: the molecule itself; remark: listed apart in the source
FRET or BRET [3] = target: the molecule itself; remark: listed apart in the source
FRET or BRET [4] = target: the molecule itself; remark: listed apart in the source
FRET or BRET [5] = target: the molecule itself; remark: listed apart in the source
FRET or BRET [6] = target: the molecule itself; remark: listed apart in the source
FRET or BRET [7] = target: the molecule itself; remark: listed apart in the source

B1: opsin tagged with the fluorescent proteins mTurquoise or SYFP2 (opsin-mTurquoise and opsin-SYFP2, co-expressed) (receptor, UniProt P15409 1-348, looked up)
chain: MNGTEGPNFYVPFSNVTGVVRSPFEQPQYYLAEPWQFSMLAAYMFLLIVLGFPINFLTLYVTVQHKKLRTPLNYILLNLAVADLFMVFGGFTTTLYTSLHGYFVFGPTGCNLEGFFATLGGEIALWSLVVLAIERYVVVCKPMSNFRFGENHAIMGVVFTWIMALACAAPPLVGWSRYIPEGMQCSCGIDYYTLKPEVNNESFVIYMFVVHFTIPMIVIFFCYGQLVFTVKEAAAQQQESATTQKAEKEVTRMVIIMVIFFLICWLPYASVAFYIFTHQGSNFGPIFMTLPAFFAKSSSIYNPVIYIMLNKQFRNCMLTTLCCGKNPLGDDDASATASKTETSQVAPA
tetramer to dimer ratio (ρ) (FRET or BRET [1]): 1.08 | tetramer to dimer ratio (ρ) (FRET or BRET [2]): 1.79 | tetramer to dimer ratio (ρ) (FRET or BRET [3]): 0.401 | tetramer to dimer ratio (ρ) (FRET or BRET [4]): 484 | stoichiometry N (FRET or BRET [5]): 2 | KD tetramer to higher order oligomers (FRET or BRET [6]): > 1150 molecules/μm^2 | stoichiometry N (FRET or BRET [6]): ≥ 12 | stoichiometry N (FRET or BRET [7]): 4
